The source of these data is PMC10902665, “Stable structures or PABP1 loading protects cellular and viral RNAs against ISG20-mediated decay”.

Series [1] concerns the target ISG20 WT (UniProt Q96AZ6 1-181). In words: EMSA; 10 mM Mn2+; ISG20 50-1600 nM, RNA 10 nM; fitted curve, no Kd printed in the material; ISG20 EMSA: 50 mM Tris-HCl pH 7.4, 150 mM NaCl, 5 mM b-mercaptoethanol, 10 mM MnCl2, 0.1 ug/ul BSA, 5% glycerol, 30 C 30 min; PABP1 EMSA: 25 mM Tris-HCl pH 7.4, 5 mM MgCl2, 100 mM NaCl, 2.5 mM DTT, 0.2 ug/ul BSA, 10% glycerol, 37 C 15 min. The note with it: protein: recombinant; tags: N-terminal 6xHis; label: 5' 32P; hairpin.

The target of series [2] is PABP1 (poly(A)-binding protein 1) (UniProt P11940 1-636). In words: EMSA; 5 mM Mg2+; PABP1 50-500 nM, RNA 10 nM; ISG20 EMSA: 50 mM Tris-HCl pH 7.4, 150 mM NaCl, 5 mM b-mercaptoethanol, 10 mM MnCl2, 0.1 ug/ul BSA, 5% glycerol, 30 C 30 min; PABP1 EMSA: 25 mM Tris-HCl pH 7.4, 5 mM MgCl2, 100 mM NaCl, 2.5 mM DTT, 0.2 ug/ul BSA, 10% glycerol, 37 C 15 min. The note with it: protein: recombinant; tags: His; label: 5' 32P; single strand. In general terms: A gel shift assay detects complexes by their altered migration in electrophoresis.
Chain of PABP1 (poly(A)-binding protein 1) (P11940 whole entry): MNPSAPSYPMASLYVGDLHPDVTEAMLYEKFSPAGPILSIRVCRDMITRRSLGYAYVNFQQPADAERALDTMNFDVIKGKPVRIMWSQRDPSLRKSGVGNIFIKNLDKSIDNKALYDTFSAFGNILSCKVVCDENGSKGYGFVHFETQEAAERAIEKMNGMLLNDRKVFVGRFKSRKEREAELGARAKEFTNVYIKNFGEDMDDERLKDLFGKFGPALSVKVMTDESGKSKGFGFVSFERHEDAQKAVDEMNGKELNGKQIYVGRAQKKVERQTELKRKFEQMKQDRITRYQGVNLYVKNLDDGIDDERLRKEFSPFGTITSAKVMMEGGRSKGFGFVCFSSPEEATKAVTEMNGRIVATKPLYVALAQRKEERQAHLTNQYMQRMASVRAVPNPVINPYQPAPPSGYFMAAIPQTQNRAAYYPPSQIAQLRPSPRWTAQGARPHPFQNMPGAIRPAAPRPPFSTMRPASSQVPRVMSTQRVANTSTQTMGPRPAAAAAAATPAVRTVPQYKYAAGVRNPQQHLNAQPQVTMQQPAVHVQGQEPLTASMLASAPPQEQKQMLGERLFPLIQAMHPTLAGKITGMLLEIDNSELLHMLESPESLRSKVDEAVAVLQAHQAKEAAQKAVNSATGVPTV

Chain of ISG20 WT (Q96AZ6 whole entry): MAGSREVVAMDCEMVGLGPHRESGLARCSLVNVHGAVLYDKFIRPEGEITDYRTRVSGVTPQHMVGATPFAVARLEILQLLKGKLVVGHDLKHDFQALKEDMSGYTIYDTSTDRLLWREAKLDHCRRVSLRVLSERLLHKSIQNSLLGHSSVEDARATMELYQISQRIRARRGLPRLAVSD

Turning to GGGGCCAGAUCUGAGCCUGGGAGCUCUCUGGCCC (structured_RNA) [TAR-9SL], the binding result in series [1] was “binds”. ACACACACACACACACACACAAAAAAAAAAAAAAAAAAAA (ssRNA) [(AC)10A20, poly(A)-containing linear RNA]: the binding result in series [2] is “binds”.
